Assay results published in publication PMC5418926, “A Functional Role for the Monomethylated Gln-51 and Lys-53 Residues of the 49GGQTK53 Motif of eL42 from Human 80S Ribosomes” (The Open Biochemistry Journal, 2017).

Target: human recombinant eL42-Δ(GGQTK) variant, His-tagged (human, UniProt P83881 1-106, Δ(GGQTK), residues 49-GGQTK-53 deleted)
Experiment: SPR; Biacore 3000; His-tagged eL42 species immobilised by amine coupling on a CM5 chip; eRF1 or EF-3 as analyte; 25°C, HBS-EP (10 mM HEPES pH 7.4, 150 mM NaCl, 3 mM EDTA, 0.005% P20), 5 µL/min; 1:1 Langmuir fit; mean of 3 experiments
Conditions: both partners purified

Kd: 9.2 µM
B1: elongation factor 3 (EF-3) from S. cerevisiae, His-tagged (natural protein, UniProt P16521 1-1044, looked up)
chain: MSDSQQSIKVLEELFQKLSVATADNRHEIASEVASFLNGNIIEHDVPEHFFGELAKGIKDKKTAANAMQAVAHIANQSNLSPSVEPYIVQLVPAICTNAGNKDKEIQSVASETLISIVNAVNPVAIKALLPHLTNAIVETNKWQEKIAILAAISAMVDAAKDQVALRMPELIPVLSETMWDTKKEVKAAATAAMTKATETVDNKDIERFIPSLIQCIADPTEVPETVHLLGATTFVAEVTPATLSIMVPLLSRGLNERETGIKRKSAVIIDNMCKLVEDPQVIAPFLGKLLPGLKSNFATIADPEAREVTLRALKTLRRVGNVGEDDAIPEVSHAGDVSTTLQVVNELLKDETVAPRFKIVVEYIAAIGADLIDERIIDQQAWFTHITPYMTIFLHEKKAKDILDEFRKRAVDNIPVGPNFDDEEDEGEDLCNCEFSLAYGAKILLNKTQLRLKRARRYGICGPNGCGKSTLMRAIANGQVDGFPTQEECRTVYVEHDIDGTHSDTSVLDFVFESGVGTKEAIKDKLIEFGFTDEMIAMPISALSGGWKMKLALARAVLRNADILLLDEPTNHLDTVNVAWLVNYLNTCGITSITISHDSVFLDNVCEYIINYEGLKLRKYKGNFTEFVKKCPAAKAYEELSNTDLEFKFPEPGYLEGVKTKQKAIVKVTNMEFQYPGTSKPQITDINFQCSLSSRIAVIGPNGAGKSTLINVLTGELLPTSGEVYTHENCRIAYIKQHAFAHIESHLDKTPSEYIQWRFQTGEDRETMDRANRQINENDAEAMNKIFKIEGTPRRIAGIHSRRKFKNTYEYECSFLLGENIGMKSERWVPMMSVDNAWIPRGELVESHSKMVAEVDMKEALASGQFRPLTRKEIEEHCSMLGLDPEIVSHSRIRGLSGGQKVKLVLAAGTWQRPHLIVLDEPTNYLDRDSLGALSKALKEFEGGVIIITHSAEFTKNLTEEVWAVKDGRMTPSGHNWVSGQGAGPRIEKKEDEEDKFDAMGNKIAGGKKKKKLSSAELRKKKKERMKKKKELGDAYVSSDEEF
notes: S. cerevisiae elongation factor 3; The expression strain was a gift of Maria Mateyak; also called eEF-3; yeast EF-3; source: E. coli TKBL40 (BL21, His-tagged eEF-3 in pET11a), purified (His GraviTrap)
